Tests used:
[1] = target: T1, human TfR ectodomain fused to a mouse IgG1 Fc fragment (human, UniProt P02786 89-760); test: SPR, kinetic
T1 construct: extracellular domain; ectodomain fused to the N-terminal end of the Fc, made in-house; not shown: mouse IgG1 Fc fragment
Method: (§1) Binding properties of some VHHs were also evaluated using Surface Plasmon Resonance (SPR) experiments. The human, mouse and rhesus monkey TfR (having respectively GeneBank number NM_003234.2, NM_011638, NC_041755.1) ectodomains were fused to the N-terminal end of a mouse IgG1 Fc fragment and the recombinant proteins were produced and purified in-house. Interaction of VHHs with the receptors was tested using a Biacore T200 (GE Healthcare). Receptors were immobilized on an HC 1500M or a CM5 sensor chip (Xantec) either directly or on an anti-mouse IgG previously immobilized. VHHs were injected over flowcell by using the single-cycle kinetic or the multiple-cycle kinetic methods.

[2] = target: T2, mouse TfR ectodomain fused to a mouse IgG1 Fc fragment (mouse, UniProt Q62351 89-763); test: SPR, kinetic
T2 construct: extracellular domain; not shown: mouse IgG1 Fc fragment
Method: as §1

[3] = target: T3, human transferrin receptor (hTfR) fused to EGFP, on CHO cells (human, UniProt P02786 1-760); test: apparent Kd, flow cytometry, CHO cells
T3 construct: whole, on cells; also called human TfR; CHO-hTfR-EGFP; not shown: EGFP from pEGFP-C1 vector, fused to the N-terminal (intracellular) end of hTfR
Method: (§2) The binding properties of VHHs with affinity for the TfR from different species (i.e., human (h), mouse (m) and rhesus monkey (rh)) were tested using flow cytometry, and apparent affinities (Kd app) were determined. All experiments were performed in 96 well plates using 2×10⁵ cells/well, at 4° C. with shaking. CHO cell lines expressing the hTfR, mTfR or rhTfR fused to EGFP were saturated with PBS/BSA 2% solution during 30 min to avoid nonspecific binding, followed by incubation with purified VHHs at increasing concentrations for 1 hr. After one wash in PBS/BSA 2%, cells were incubated for 1 hr with an anti-6His tag antibody (mouse), washed twice with PBS/BSA 2%, and incubated for 1 hr with an Alexa647-conjugated anti-mouse secondary antibody. After two last washes in PBS/BSA 2%, cells were fixed by incubation for 15 min with PBS/PFA 2%, washed once with PBS and finally resuspended in PBS. Fluorescence levels were assessed using an Attune NxT flow cytometer (Thermo Fisher Scientific). Experimental data were fitted with GraphPad Prism® software using a nonlinear fit to determine the apparent Kd constants. […] Table 5 hereafter summarizes apparent Kd obtained for the tested VHHs.

[4] = target: T4, mouse transferrin receptor (mTfR) fused to EGFP, on CHO cells (mouse, UniProt Q62351 1-763); test: apparent Kd, flow cytometry, CHO cells
T4 construct: whole, on cells; also called mouse TfR; CHO-mTfR-EGFP; not shown: EGFP
Method: as §2

[5] = target: T5, rhesus monkey transferrin receptor (rhTfR) fused to EGFP, on CHO cells (rhesus monkey); test: apparent Kd, flow cytometry, CHO cells
T5 construct: whole, on cells; also called rhesus monkey TfR
Method: as §2

T2 sequence (Q62351 89-763): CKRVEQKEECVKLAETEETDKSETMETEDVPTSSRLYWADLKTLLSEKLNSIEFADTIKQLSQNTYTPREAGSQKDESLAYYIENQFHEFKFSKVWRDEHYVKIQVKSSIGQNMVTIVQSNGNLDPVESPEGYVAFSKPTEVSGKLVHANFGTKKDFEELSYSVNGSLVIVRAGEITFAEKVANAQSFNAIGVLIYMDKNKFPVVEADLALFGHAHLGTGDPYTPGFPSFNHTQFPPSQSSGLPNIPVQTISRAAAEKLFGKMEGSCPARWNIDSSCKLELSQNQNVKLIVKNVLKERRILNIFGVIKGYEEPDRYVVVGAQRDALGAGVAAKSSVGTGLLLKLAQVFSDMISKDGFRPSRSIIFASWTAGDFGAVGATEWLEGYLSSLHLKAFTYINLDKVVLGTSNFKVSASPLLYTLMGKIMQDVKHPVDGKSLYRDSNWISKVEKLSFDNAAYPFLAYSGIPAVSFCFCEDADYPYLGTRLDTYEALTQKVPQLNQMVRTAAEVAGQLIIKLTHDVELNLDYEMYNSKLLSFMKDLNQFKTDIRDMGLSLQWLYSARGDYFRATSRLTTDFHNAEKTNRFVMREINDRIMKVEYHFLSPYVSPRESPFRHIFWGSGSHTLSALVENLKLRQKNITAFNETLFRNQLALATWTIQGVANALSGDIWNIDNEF
T4 sequence (Q62351 whole entry, the tested form may be a part): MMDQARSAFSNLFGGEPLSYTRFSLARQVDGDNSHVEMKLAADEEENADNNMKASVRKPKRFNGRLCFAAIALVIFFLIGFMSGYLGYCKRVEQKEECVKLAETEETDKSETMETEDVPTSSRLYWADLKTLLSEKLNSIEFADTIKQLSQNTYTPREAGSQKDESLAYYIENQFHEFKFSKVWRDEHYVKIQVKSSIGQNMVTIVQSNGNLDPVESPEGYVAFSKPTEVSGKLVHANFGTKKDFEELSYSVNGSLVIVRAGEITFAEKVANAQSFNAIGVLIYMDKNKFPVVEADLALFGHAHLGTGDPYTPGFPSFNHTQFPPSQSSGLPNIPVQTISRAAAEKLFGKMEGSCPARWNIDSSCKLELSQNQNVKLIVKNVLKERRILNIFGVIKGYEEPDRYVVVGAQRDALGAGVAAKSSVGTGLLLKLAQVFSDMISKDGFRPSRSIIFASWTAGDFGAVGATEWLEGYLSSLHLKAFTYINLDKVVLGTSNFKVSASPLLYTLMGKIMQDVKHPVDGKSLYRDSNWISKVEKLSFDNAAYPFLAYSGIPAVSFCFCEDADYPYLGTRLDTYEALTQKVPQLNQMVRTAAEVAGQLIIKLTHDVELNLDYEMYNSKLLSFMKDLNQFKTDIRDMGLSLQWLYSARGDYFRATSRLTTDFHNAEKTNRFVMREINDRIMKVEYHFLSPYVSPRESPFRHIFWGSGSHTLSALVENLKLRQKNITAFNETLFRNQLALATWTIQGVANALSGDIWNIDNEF
T1 sequence (P02786 89-760): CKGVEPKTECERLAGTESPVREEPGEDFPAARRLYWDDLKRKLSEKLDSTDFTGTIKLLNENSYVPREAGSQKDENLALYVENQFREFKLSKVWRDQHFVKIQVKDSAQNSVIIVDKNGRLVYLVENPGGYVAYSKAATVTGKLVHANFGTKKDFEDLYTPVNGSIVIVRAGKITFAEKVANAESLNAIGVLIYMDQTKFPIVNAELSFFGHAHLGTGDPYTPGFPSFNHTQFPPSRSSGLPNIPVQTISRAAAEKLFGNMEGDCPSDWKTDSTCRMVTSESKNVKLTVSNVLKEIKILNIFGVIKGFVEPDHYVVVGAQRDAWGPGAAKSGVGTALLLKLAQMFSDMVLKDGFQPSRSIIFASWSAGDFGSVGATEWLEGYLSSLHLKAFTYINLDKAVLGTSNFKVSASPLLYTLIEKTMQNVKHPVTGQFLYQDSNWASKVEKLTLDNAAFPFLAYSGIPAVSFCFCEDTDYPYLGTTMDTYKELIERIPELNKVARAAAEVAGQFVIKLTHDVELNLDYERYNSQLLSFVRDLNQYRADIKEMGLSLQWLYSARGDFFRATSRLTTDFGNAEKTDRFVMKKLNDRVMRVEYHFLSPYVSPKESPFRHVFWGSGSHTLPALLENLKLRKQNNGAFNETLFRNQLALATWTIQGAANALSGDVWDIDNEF
T3 sequence (P02786 whole entry, the tested form may be a part): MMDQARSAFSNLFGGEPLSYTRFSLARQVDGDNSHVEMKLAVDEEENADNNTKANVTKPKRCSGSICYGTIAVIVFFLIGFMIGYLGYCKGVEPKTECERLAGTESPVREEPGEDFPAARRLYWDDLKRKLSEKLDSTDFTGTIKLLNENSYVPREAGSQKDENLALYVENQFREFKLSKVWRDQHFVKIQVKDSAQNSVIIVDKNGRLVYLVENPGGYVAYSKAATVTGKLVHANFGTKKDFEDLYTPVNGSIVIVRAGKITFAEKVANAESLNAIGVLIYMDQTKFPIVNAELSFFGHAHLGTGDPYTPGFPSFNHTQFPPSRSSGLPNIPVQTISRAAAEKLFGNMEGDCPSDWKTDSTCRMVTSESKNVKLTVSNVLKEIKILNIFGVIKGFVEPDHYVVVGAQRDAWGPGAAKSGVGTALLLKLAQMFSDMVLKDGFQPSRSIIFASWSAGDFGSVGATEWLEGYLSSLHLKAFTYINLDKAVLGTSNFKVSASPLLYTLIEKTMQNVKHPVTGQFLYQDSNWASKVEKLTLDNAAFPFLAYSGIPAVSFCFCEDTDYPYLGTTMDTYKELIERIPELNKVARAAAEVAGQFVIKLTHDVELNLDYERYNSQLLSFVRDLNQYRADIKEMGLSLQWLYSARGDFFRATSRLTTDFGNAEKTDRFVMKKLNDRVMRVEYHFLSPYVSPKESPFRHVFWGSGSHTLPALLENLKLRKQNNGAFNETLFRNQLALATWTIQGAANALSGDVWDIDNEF

B1: B8^V1 (VHH)
VHH: EVQLVESGGGVVQPGGSLRLSCAADGEIFSINFMRWYRQAPGKQREWVAGFTRDGSTNYPDSAKGRFTISRDNAKNTVYLQIDSLKPEDTAVYYCYMLDTWGQGTQVTVSS
With B1 the Kd [1] was 6.04 nM, the koff [1] was 0.0011 s⁻¹ and the kon [1] was 183000 M⁻¹ s⁻¹. It also gave a Kd [2] of 1960 nM, a koff [2] of 0.0125 s⁻¹ and a kon [2] of 6510 M⁻¹ s⁻¹. For the same binder, the Kd [3] was 192 nM, the Kd [4] was 313 nM and the Kd [5] was 138 nM.

B2: B8^V30 (VHH)
VHH: EVQLVESGGGVVQPGGSLRLSCAASGEIFSINFMRWYRQAPGKQREWVAGFTRDGSTNYPDSAKGRFTISRDNAKNTVYLQIDSLKPEDTAVYYCYMQDTWGQGTQVTVSS
B2 showed a Kd [3] of 24 nM, a Kd [4] of 3320 nM and a Kd [5] of 505 nM.

B3: B8^V15 (VHH)
VHH: EVQLVESGGGVVQPGGSLRLSCAASGEIFSINFMRWYRQAPGKQREWVAGFTRDDSTNYPDSAKGRFTISRDNAKNTVYLQIDSLKPEDTAVYYCYMLDTWGQGTQVTVSS
Work on B3 yielded a Kd [3] of 4.7 nM, a Kd [4] of 684 nM and a Kd [5] of 4.3 nM.

B4: B8^V28 (VHH)
VHH: EVQLVESGGGVVQPGGSLRLSCAASGEIFSINFMRWYRQAPGKQREWVAGFTRDGSTFYPDSAKGRFTISRDNAKNTVYLQIDSLKPEDTAVYYCYMLDTWGQGTQVTVSS
Work on B4 yielded a Kd [3] of 31 nM, a Kd [4] of 2500 nM and a Kd [5] of 755 nM.

B5: B8^V18 (VHH)
VHH: EVQLVESGGGVVQPGGSLRLSCAASGEIHSINFMRWYRQAPGKQREWVAGFTRDGSTNYPDSAKGRFTISRDNAKNTVYLQIDSLKPEDTAVYYCYMLDTWGQGTQVTVSS
Work on B5 yielded a Kd [3] of 3.8 nM, a Kd [4] of 43 nM and a Kd [5] of 1.6 nM.

B6: B8^V23 (VHH)
VHH: EVQLVESGGGVVQPGGSLRLSCAASGEIFSINFMIWYRQAPGKQREWVAGFTRDGSTNYPDSAKGRFTISRDNAKNTVYLQIDSLKPEDTAVYYCYMLDTWGQGTQVTVSS
Work on B6 yielded a Kd [3] of 29 nM, a Kd [4] of 1550 nM and a Kd [5] of 939 nM.

B7: B8^V25 (VHH)
VHH: EVQLVESGGGVVQPGGSLRLSCAASGEIFSINFMRWYRQAPGKQREWVAAFTRDGSTNYPDSAKGRFTISRDNAKNTVYLQIDSLKPEDTAVYYCYMLDTWGQGTQVTVSS
In the case of B7, the Kd [3] is reported as 14 nM, the Kd [4] is reported as 2350 nM and the Kd [5] is reported as 425 nM.

B8: B8^V19 (VHH)
VHH: EVQLVESGGGVVQPGGSLRLSCAASGEIFSINFMRWYRQAPGKQRHWVAGFTRDGSTNYPDSAKGRFTISRDNAKNTVYLQIDSLKPEDTAVYYCYMLDTWGQGTQVTVSS
B8 was tested, and the Kd [3] was 6.2 nM, the Kd [4] was 7.6 nM and the Kd [5] was 2.3 nM.

B9: B8^V17 (VHH)
VHH: EVQLVESGGGVVQPGGSLRLSCAASGEIFSINFMRWYRQAPGKQREFVAGFTRDGSTNYPDSAKGRFTISRDNAKNTVYLQIDSLKPEDTAVYYCYMLDTWGQGTQVTVSS
In the case of B9, the Kd [3] is reported as 4.8 nM, the Kd [4] is reported as 5.2 nM and the Kd [5] is reported as 2.5 nM.

B10: B8^V21 (VHH)
VHH: EVQLVESGGGVVQPGGSLRLSCAASGEIFSINNMRWYRQAPGKQREWVAGFTRDGSTNYPDSAKGRFTISRDNAKNTVYLQIDSLKPEDTAVYYCYMLDTWGQGTQVTVSS
B10 was tested, and the Kd [3] was 29 nM, the Kd [4] was 3350 nM and the Kd [5] was 469 nM.

B11: B8^V14 (VHH)
VHH: EVQLVESGGGVVQPGGSLRLSCAASGEIFSINFMRWYRQAPGKQREWVAGFTRLGSTNYPDSAKGRFTISRDNAKNTVYLQIDSLKPEDTAVYYCYMLDTWGQGTQVTVSS
In the case of B11, the Kd [3] is reported as 4.8 nM, the Kd [4] is reported as 41 nM and the Kd [5] is reported as 1.9 nM.

B12: B8^V20 (VHH)
VHH: EVQLVESGGGVVQPGGSLRLSCAASGEIFSINFMRWYRQAPGKQREWVAGFTRDGSHNYPDSAKGRFTISRDNAKNTVYLQIDSLKPEDTAVYYCYMLDTWGQGTQVTVSS
B12 showed a Kd [3] of 4.5 nM, a Kd [4] of 6.4 nM and a Kd [5] of 1.8 nM.

B13: C5^V13h20 (VHH)
VHH: EVQLVESGGGVVQPGGSLRLSCAASGTDFSINFIRWYRQAPGKGLEFVAGFSATGNTNYADSVKGRFTISRDNAKNAVYLQMNSLRPEDTAVYYCYMLDKWGQGTQVTVSS
Binder B13 has a Kd [1] of 4.55 nM, a koff [1] of 0.00357 s⁻¹ and a kon [1] of 786000 M⁻¹ s⁻¹. It also gave a Kd [3] of 3.8 nM, a Kd [4] of 246 nM and a Kd [5] of 549 nM.

B14: VHH D (H3) (VHH)
VHH: EVQLVESGGGEVQPGGSLKLSCVASGTDFSINFVRWYRQRPGKQREWVAGFTANGDTNYPDSMKGRFTISRDNAKNTVYLQINSLKSEDTAVYYCYMLDNWGQGTQVTVSS
In the case of B14, the Kd [1] is reported as 0.0333 nM, the koff [1] is reported as 3.3e-05 s⁻¹ and the kon [1] is reported as 1.01e+06 M⁻¹ s⁻¹. For the same binder, the Kd [2] was 15.6 nM, the koff [2] was 0.00909 s⁻¹ and the kon [2] was 581000 M⁻¹ s⁻¹. It also gave a Kd [3] of 1.9 nM, a Kd [4] of 56 nM and a Kd [5] of 1.5 nM.

B15: C5^h9 (VHH)
VHH: EVQLVESGGGVVQPGGSLRLSCAASGTDFSINFIRWYRQAPGKGLEFVAGFTATGNTNYADSVKGRFTISRDNAKNTLYLQMNSLRPEDTAVYYCYMLDKWGQGTQVTVSS
Work on B15 yielded a Kd [1] of 10.6 nM, a koff [1] of 0.00582 s⁻¹ and a kon [1] of 549000 M⁻¹ s⁻¹. The Kd [3] was 6.1 nM, the Kd [4] was 431 nM and the Kd [5] was 493 nM.

B16: C5^h20 (VHH)
VHH: EVQLVESGGGVVQPGGSLRLSCAASGTDFSINFIRWYRQAPGKGLEFVAGFTATGNTNYADSVKGRFTISRDNAKNAVYLQMNSLRPEDTAVYYCYMLDKWGQGTQVTVSS
With B16 the Kd [1] was 0.985 nM, the koff [1] was 0.00105 s⁻¹ and the kon [1] was 866000 M⁻¹ s⁻¹. For the same binder, the Kd [3] was 4.1 nM, the Kd [4] was 22 nM and the Kd [5] was 40 nM.

B17: VHH A16 (C5^V16) (VHH)
VHH: EVQLVESGGGVVQPGGSLKLSCVASGTDFSINFIRWYRQAPGKQREFVAGFTATGNTNYADSMKGRFTISRDNTKNAVYLQIDSLKPEDTAVYYCYILDKWGQGTQVTVSS
B17 showed a Kd [1] of 14.5 nM, a koff [1] of 0.00577 s⁻¹ and a kon [1] of 459000 M⁻¹ s⁻¹. For the same binder, the Kd [3] was 4.7 nM, the Kd [4] was 131 nM and the Kd [5] was 425 nM.

B18: C5^h22 (VHH)
VHH: EVQLVESGGGVVQPGGSLRLSCAASGTDFSINFIRWYRQAPGKGREFVAGFTATGNTNYADSVKGRFTISRDNAKNTLYLQMNSLRPEDTAVYYCYMLDKWGQGTQVTVSS
With B18 the Kd [1] was 8.96 nM, the koff [1] was 0.00906 s⁻¹ and the kon [1] was 1.5e+06 M⁻¹ s⁻¹. For the same binder, the Kd [3] was 4.9 nM, the Kd [4] was 602 nM and the Kd [5] was 755 nM.

B19: B4a (VHH)
VHH: EVQLVESGGGLVQAGGSLRLSCTASGRTVSNYRMGWFRQTPGKEREFVAAIAWAGGSLTYADSVKGRFTISRDNAKNTVYLQMNSLEPTDTAVYYCKGSRIFPTRDYWGKGTQVTVSS
With B19 the Kd [3] was 692 nM, the Kd [4] was 409 nM and the Kd [5] was 479 nM.

B20: A9a (VHH)
VHH: QVQLVQSGGGLVQAGGSLRLSCAASGSIFLINDMGWYRQAPGKQRELVAVRGGSTKYGDSVKGRFTISRDDAKNTVYLQMNSLKPEDTAVYYCHRESGLGSSEYWGQGTQVTVSS
For B20, the Kd [3] was 1860 nM, the Kd [4] was 841 nM and the Kd [5] was 965 nM.
